Measurements published in paper PMC9181642.

Molecular target: insulin receptor (mouse (endogenous in 3T3-L1))
Assay: co-IP; lysates of differentiated, serum-deprived 3T3-L1 adipocytes, untreated or treated with 100 nM Ang II for 60 min (for PKCβII also 10 µM DuP 753 for 30 min before Ang II); lysis in 50 mM Tris-HCl, 150 mM NaCl, 1% Nonidet P-40, 10% glycerol, 2 mM EDTA, pH 7.4; IR precipitated with anti-IR-β polyclonal antibody and protein A/G PLUS-Agarose; blots probed with anti-PKCα, -βI, -βII or -δ and quantified by densitometry

Chain of insulin receptor (mouse (endogenous in 3T3-L1)) (P15208 28-1372): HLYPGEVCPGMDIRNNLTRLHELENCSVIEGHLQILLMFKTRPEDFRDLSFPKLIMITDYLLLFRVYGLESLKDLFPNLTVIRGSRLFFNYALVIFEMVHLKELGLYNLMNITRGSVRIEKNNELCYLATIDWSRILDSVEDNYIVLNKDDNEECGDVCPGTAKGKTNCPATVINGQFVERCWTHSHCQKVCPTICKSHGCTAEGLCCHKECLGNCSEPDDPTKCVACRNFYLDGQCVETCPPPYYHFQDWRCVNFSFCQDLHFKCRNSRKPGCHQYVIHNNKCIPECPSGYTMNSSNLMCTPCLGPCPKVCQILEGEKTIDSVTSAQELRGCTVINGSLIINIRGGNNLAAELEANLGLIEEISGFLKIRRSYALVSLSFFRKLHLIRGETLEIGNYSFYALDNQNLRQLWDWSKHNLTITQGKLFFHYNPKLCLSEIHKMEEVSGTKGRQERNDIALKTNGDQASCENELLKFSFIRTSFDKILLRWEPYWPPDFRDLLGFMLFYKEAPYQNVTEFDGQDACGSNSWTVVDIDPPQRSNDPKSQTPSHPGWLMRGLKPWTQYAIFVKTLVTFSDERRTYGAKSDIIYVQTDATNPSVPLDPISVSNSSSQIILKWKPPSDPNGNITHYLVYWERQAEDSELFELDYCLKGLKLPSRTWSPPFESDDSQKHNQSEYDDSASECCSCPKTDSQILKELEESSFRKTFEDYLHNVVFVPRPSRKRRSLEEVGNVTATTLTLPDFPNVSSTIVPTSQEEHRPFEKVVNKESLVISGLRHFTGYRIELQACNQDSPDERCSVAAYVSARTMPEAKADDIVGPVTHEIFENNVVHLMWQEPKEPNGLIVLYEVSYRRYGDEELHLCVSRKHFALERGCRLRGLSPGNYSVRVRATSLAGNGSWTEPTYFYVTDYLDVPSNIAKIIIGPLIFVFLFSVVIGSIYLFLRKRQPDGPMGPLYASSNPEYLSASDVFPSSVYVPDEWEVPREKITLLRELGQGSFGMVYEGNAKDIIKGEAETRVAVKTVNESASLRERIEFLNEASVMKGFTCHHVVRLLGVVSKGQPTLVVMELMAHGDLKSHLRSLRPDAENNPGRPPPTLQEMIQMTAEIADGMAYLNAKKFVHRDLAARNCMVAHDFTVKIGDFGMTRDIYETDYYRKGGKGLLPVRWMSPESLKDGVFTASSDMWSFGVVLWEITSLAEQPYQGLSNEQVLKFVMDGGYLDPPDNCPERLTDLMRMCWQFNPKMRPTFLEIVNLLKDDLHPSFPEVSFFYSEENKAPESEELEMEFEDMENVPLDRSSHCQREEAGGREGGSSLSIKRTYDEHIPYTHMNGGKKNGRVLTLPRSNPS

fold increase of the association with Ang II over control cells	Substance
2 fold	PKCα (from UniProt P20444 1-672) (enzyme)
1.2 fold	PKCβI (from UniProt P68404 1-671) (enzyme)
4 fold	PKCβII (from UniProt P68404-2 1-673) (enzyme)
1.5 fold	PKCδ (from UniProt P28867 1-674) (enzyme)
